{
  "source": "paper PMC5389854",
  "about": "“Functional analysis of the GmESR1 gene associated with soybean regeneration”",
  "binders": {"B1": {"name": "mGCC-box probe (dsDNA)", "DNA 1": "ATCCATAAGATCCTCCACTAAAATAAGACCGATCAA", "DNA 2": "TTGATCGGTCTTATTTTAGTGGAGGATCTTATGGAT"}},
  "molecular_target": "GmESR1 (Glycine max cv. Dongnong 50, UniProt K7K6B8 5-391)",
  "sequence (K7K6B8 entry or part of it)": "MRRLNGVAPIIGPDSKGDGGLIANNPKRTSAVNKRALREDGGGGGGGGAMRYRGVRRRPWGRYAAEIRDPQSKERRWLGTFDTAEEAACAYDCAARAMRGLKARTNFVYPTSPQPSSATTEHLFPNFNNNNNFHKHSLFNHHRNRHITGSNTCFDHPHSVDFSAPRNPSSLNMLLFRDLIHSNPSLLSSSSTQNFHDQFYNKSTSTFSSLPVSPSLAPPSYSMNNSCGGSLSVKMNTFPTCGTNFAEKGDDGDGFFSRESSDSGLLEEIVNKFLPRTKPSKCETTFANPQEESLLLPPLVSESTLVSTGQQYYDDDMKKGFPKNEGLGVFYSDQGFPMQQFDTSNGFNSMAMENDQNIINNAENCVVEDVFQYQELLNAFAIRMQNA",
  "test": "EMSA; EMSA as in Kass et al. (2000); buffer, salt, pH and temperature not stated",
  "details": "protein: recombinant; tags: His (pET-29b); label: digoxigenin-ddUTP; blunt",
  "data": [
    {"binder": "B1", "values": [
      {"measurement": "binding result", "value": "no binding"}
    ]}
  ]
}
